From the Immune Epitope Database (IEDB) come the findings set out here.

As usually defined, the IC50 is the midpoint of a concentration-inhibition curve.

In experiment [1] the target is HLA-A*02:01. The experiment is described as follows: IEDB peptide-MHC binding, cellular MHC/competitive/fluorescence; ≥ and ≤ were set here for values at or beyond the usual limits of such assays.
Another experiment has as its target HLA-A*02:03. The description is as above.
For another experiment, the target named is HLA-A*02:02. The experiment is described as follows: IEDB peptide-MHC binding, purified MHC/competitive/radioactivity; ≥ and ≤ were set here for values at or beyond the usual limits of such assays.
For a further experiment, the target named is HLA-A*68:02. Described as above.
A further experiment addresses HLA-A*02:06. The description is as above.
Experiment [2] addresses HLA-A*02:01. The experiment is described as above.
The mark [3] stands for this setting: source organism: Vaccinia virus WR.
Where [4] appears, read: source organism: Mammarenavirus brazilense.
[5] abbreviates: source organism: Mammarenavirus choriomeningitidis.
Where [6] appears, read: source organism: Mammarenavirus guanaritoense.
[7] abbreviates: source organism: Mammarenavirus whitewaterense.

Turning to LTHFNNNENV, the half-maximal inhibitory concentration (IC50) is 6590 nM with HLA-A*02:01 [1] (setting [3]); 7270 nM in the experiment with HLA-A*02:03 (setting [3]); 907 nM with HLA-A*02:02 (setting [3]); 11 nM with HLA-A*68:02 (setting [3]); 996 nM with HLA-A*02:06 (setting [3]).
For KNATWCLEV, the half-maximal inhibitory concentration (IC50) in the experiment with HLA-A*02:01 [1] (setting [4]) came to 12800 nM; in the experiment with HLA-A*02:03 (setting [4]) it was 7020 nM; with HLA-A*02:02 (setting [4]), 1620 nM; with HLA-A*68:02 (setting [4]), 1390 nM; with HLA-A*02:06 (setting [4]), 2320 nM.
With ALYYVHSLL, the IC50 worked out at 15000 nM with HLA-A*02:03 (setting [3]); 229 nM in the experiment with HLA-A*02:01 [2] (setting [3]); 26 nM with HLA-A*02:02 (setting [3]); 598 nM in the experiment with HLA-A*68:02 (setting [3]); 3260 nM with HLA-A*02:06 (setting [3]).
On the same counts, the results for CVDHPFIYVI are 10800 nM, 2890 nM, 964 nM, 791 nM and 1610 nM.
EQGDIALAL: the IC50 turned out to be 13000 nM in the experiment with HLA-A*02:01 [1] (setting [3]); 11100 nM with HLA-A*02:03 (setting [3]); 701 nM with HLA-A*02:02 (setting [3]); 800 nM in the experiment with HLA-A*68:02 (setting [3]); 4770 nM with HLA-A*02:06 (setting [3]).
The like results for TTPLISFFGL were, in that order, 27300 nM, 17600 nM, 5000 nM, 198 nM and 3360 nM.
MSCDDVVFGI: the IC50 in the experiment with HLA-A*02:03 (setting [5]) stood at 12100 nM; with HLA-A*02:01 [2] (setting [5]) it was 1010 nM; with HLA-A*02:02 (setting [5]), 1050 nM; in the experiment with HLA-A*68:02 (setting [5]), 54 nM; with HLA-A*02:06 (setting [5]) it was 250 nM.
Consider WSAIFFTTSL, for which the IC50 was 9090 nM in the experiment with HLA-A*02:01 [1] (setting [6]); 6990 nM in the experiment with HLA-A*02:03 (setting [6]); 2000 nM in the experiment with HLA-A*02:02 (setting [6]); 300 nM in the experiment with HLA-A*68:02 (setting [6]); 1410 nM with HLA-A*02:06 (setting [6]).
Turning to SNPNLFWAV, the half-inhibitory concentration (IC50) is 6160 nM in the experiment with HLA-A*02:03 (setting [4]); 1460 nM with HLA-A*02:01 [2] (setting [4]); 170 nM with HLA-A*02:02 (setting [4]); 79 nM with HLA-A*68:02 (setting [4]); 35 nM with HLA-A*02:06 (setting [4]).
Regarding TIILNKIVQL, the half-inhibitory concentration (IC50) with HLA-A*02:03 (setting [3]) came out at 49300 nM; in the experiment with HLA-A*02:01 [2] (setting [3]), 86 nM; with HLA-A*02:02 (setting [3]), 1760 nM; with HLA-A*68:02 (setting [3]), 2670 nM; with HLA-A*02:06 (setting [3]), 30 nM.
In the case of YCNYSKFWYL, the IC50 was 9640 nM with HLA-A*02:03 (setting [5]); 1710 nM with HLA-A*02:01 [2] (setting [5]); 1110 nM with HLA-A*02:02 (setting [5]); 925 nM in the experiment with HLA-A*68:02 (setting [5]); 1060 nM with HLA-A*02:06 (setting [5]).
With IVNTTYDFLA, the 50% inhibitory concentration (IC50) came out at 8270 nM with HLA-A*02:03 (setting [3]); 2390 nM with HLA-A*02:01 [2] (setting [3]); 1250 nM with HLA-A*02:02 (setting [3]); 991 nM in the experiment with HLA-A*68:02 (setting [3]); 956 nM in the experiment with HLA-A*02:06 (setting [3]).
For YAVLSEYETM, the half-maximal inhibitory concentration (IC50) with HLA-A*02:01 [1] (setting [3]) came out at 5510 nM; in the experiment with HLA-A*02:03 (setting [3]) it was 9630 nM; in the experiment with HLA-A*02:02 (setting [3]) it was 157 nM; in the experiment with HLA-A*68:02 (setting [3]), 4160 nM; with HLA-A*02:06 (setting [3]) it was 1210 nM.
Turning to MSPALFFTFL, the half-inhibitory concentration (IC50) is 6380 nM with HLA-A*02:01 [1] (setting [4]); 7640 nM with HLA-A*02:03 (setting [4]); 547 nM with HLA-A*02:02 (setting [4]); 102 nM with HLA-A*68:02 (setting [4]); 834 nM in the experiment with HLA-A*02:06 (setting [4]).
YVVIVENDNV: the IC50 with HLA-A*02:03 (setting [3]) is 11000 nM; with HLA-A*02:01 [2] (setting [3]) it was 547 nM; in the experiment with HLA-A*02:02 (setting [3]), 2340 nM; in the experiment with HLA-A*68:02 (setting [3]), 99 nM; in the experiment with HLA-A*02:06 (setting [3]), 60 nM.
Consider STVDVRNIVT, for which the IC50 in the experiment with HLA-A*02:03 (setting [3]) came to 11600 nM; in the experiment with HLA-A*02:01 [2] (setting [3]), 3050 nM; with HLA-A*02:02 (setting [3]), 3060 nM; with HLA-A*68:02 (setting [3]), 475 nM; in the experiment with HLA-A*02:06 (setting [3]) it was 1570 nM.
For ITVGMLIYSM, the half-maximal inhibitory concentration (IC50) is 6110 nM with HLA-A*02:03 (setting [3]); 167 nM with HLA-A*02:01 [2] (setting [3]); 47 nM in the experiment with HLA-A*02:02 (setting [3]); 611 nM with HLA-A*68:02 (setting [3]); 97 nM with HLA-A*02:06 (setting [3]).
Turning to HTYHLENDKI, the IC50 with HLA-A*02:01 [1] (setting [3]) worked out at 59000 nM; with HLA-A*02:03 (setting [3]), 13700 nM; with HLA-A*02:02 (setting [3]) it was 1790 nM; in the experiment with HLA-A*68:02 (setting [3]) it was 284 nM; with HLA-A*02:06 (setting [3]) it was 1990 nM.
Regarding LTSVDIETA, the half-maximal inhibitory concentration (IC50) with HLA-A*02:01 [1] (setting [3]) was determined as 24000 nM; with HLA-A*02:03 (setting [3]), 11500 nM; with HLA-A*02:02 (setting [3]), 4920 nM; with HLA-A*68:02 (setting [3]) it was 1240 nM; with HLA-A*02:06 (setting [3]), 311 nM.
Consider IVSRSSRGV, for which the concentration for half-maximal inhibition (IC50) with HLA-A*02:03 (setting [3]) is 13200 nM; with HLA-A*02:01 [2] (setting [3]), 1980 nM; with HLA-A*02:02 (setting [3]), 264 nM; in the experiment with HLA-A*68:02 (setting [3]), 1020 nM; with HLA-A*02:06 (setting [3]), 476 nM.
As to FSAVISGSV, the half-inhibitory concentration (IC50) with HLA-A*02:03 (setting [7]) amounted to 14100 nM; with HLA-A*02:01 [2] (setting [7]) it was 83 nM; in the experiment with HLA-A*02:02 (setting [7]) it was 48 nM; with HLA-A*68:02 (setting [7]), 2.6 nM; with HLA-A*02:06 (setting [7]) it was 161 nM.
Turning to NAVTTNNLL, the IC50 with HLA-A*02:03 (setting [3]) came out at 24900 nM; in the experiment with HLA-A*02:02 (setting [3]) it was 1860 nM; with HLA-A*68:02 (setting [3]), 4000 nM; in the experiment with HLA-A*02:06 (setting [3]), 202 nM.
